B1: PmEst (Petrotoga mobilis SJ95) (protein)
chain: MALLEVNFMSRSLMRKVPIMVVLPMDKANLSGKSEITDNDNNTFKTLYLLHGIFGNYSDWVSETRIQRLAEGRNLAVVMPSGENSFYLDQPESGNFYGEFIGRELVNITRKMFPLSRKKEDTFIAGLSMGGYGAIRNGLKYHETFGCVAGLSSALNFEQMLDESYQVIACKKSAFGDPKEAILSDKNPKVLVKNIKENPLGQFPKMYMACGTEDNLINSNRDFRDFLIENNVDLTYEEGPGAHTWEFWDTYIEKVLDWLPLKKPS
notes: synthetic gene, modified pET28a, N-terminal His6-SUMO fusion cut by SUMO protease; E. coli Rosetta (DE3); PFAM PF00756 esterase

Tests used:
[1] = biological target: Petrotoga mobilis esterase (PmEst) (Petrotoga mobilis); test: SEC; Superdex 200 10/300 GL column, calibrated with carbonic anhydrase, ovalbumin, bovine serum albumin, conalbumin and aldolase; purified PmEst in aqueous solution
purified protein [2] = substrate: CCCC(=O)Oc1ccc([N+](=O)[O-])cc1; test: purified protein; type: biochemical, Petrotoga mobilis; conditions: 10 mM sodium phosphate pH 7.4, 500 nM enzyme, acetonitrile from substrate stock, temperature of the kinetics not stated
purified protein [3] = substrate: CC(=O)Oc1ccc([N+](=O)[O-])cc1; test: purified protein; type: biochemical, Petrotoga mobilis; conditions: 10 mM sodium phosphate pH 7.4, 500 nM enzyme, acetonitrile from substrate stock, temperature of the kinetics not stated

| Molecule | stoichiometry N [1] | Km (purified protein [2]) | kcat (purified protein [2]) | kcat/Km (purified protein [2]) | Km (purified protein [3]) | kcat (purified protein [3]) | kcat/Km (purified protein [3]) |
| --- | --- | --- | --- | --- | --- | --- | --- |
| Petrotoga mobilis esterase (PmEst) (enzyme) | 3 | – | – | – | – | – | – |
| B1 | – | 160 ± 10 µM | 14.1 ± 0.29 s⁻¹ | 88100 ± 6000 M⁻¹ s⁻¹ | 1430 ± 170 µM | 29.2 ± 1.2 s⁻¹ | 20500 ± 1600 M⁻¹ s⁻¹ |

Reference: paper PMC4924860, “Environmental Factors Modulating the Stability and Enzymatic Activity of the Petrotoga mobilis Esterase (PmEst)” (PLoS ONE, 2016)
